Target: the molecule itself
Assay: nondenaturing SDS-PAGE or size exclusion chromatography (self-association)
Description: For nondenaturing SDS-PAGE, one μg of each purified DsRed variant or wild-type DsRed was mixed with SDS-containing sample buffer on ice and immediately electrophoresed at 4° C. in a 10% polyacrylamide gel, followed by staining with Coomassie Blue. Additional aliquots of wild-type DsRed and DsRed variants were denatured by boiling prior to electrophoresis.

B1: DsRed.M1 (other)
chain: MDNTEDVIKEFMQFKVRMEGSVNGHYFEIEGEGEGKPYEGTQTAKLQVTKGGPLPFAWDILSPQFQYGSKAYVKHPADIPDYMKLSFPEGFTWERSMNFEDGGVVEVQQDSSLQDGTFIYKVKFKGVNFPADGPVMQKKTAGWEPSTEKLYPQDGVLKGEISHALKLKDGGHYTCDFKTVYKAKKPVQLPGNHYVDSKLDITNHNEDYTVVEQYEHAEARHSGSQ
notes: Purified protein tested for its oligomeric state; also called monomeric DsRed variant; red fluorescent DsRed monomer
- binding result: no binding

Reference: patent US20060008878A1 (UNIVERSITY OF CHICAGO, published 2006)
